Test results: patent US20260132178A1 (SYNERKINE PHARMA B V, published 2026)

T1: IL4 (type II) receptor (UniProt P24394 26-825; P78552 22-427, limits assumed)
T1 sequence (looked up) 1: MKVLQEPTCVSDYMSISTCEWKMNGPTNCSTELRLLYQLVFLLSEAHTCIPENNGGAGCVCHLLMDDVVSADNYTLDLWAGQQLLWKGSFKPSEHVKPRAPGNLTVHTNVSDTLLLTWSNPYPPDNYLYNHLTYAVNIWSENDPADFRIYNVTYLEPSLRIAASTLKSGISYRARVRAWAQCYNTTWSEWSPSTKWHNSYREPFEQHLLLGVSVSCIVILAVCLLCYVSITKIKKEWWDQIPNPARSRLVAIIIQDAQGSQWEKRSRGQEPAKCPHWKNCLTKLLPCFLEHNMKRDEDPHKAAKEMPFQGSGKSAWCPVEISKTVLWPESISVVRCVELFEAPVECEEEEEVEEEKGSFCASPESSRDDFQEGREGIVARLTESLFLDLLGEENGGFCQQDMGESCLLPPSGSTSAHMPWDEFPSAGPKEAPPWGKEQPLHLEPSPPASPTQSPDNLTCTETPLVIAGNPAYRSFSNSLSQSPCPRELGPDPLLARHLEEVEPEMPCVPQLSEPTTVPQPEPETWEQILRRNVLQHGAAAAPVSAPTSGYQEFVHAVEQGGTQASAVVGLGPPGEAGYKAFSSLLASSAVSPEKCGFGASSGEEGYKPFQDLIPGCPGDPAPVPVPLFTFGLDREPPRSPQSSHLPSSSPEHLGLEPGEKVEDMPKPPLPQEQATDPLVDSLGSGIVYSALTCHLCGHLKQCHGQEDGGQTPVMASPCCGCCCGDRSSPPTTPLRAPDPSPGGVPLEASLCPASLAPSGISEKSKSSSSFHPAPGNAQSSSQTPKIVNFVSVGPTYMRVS
T1 sequence (looked up) 2: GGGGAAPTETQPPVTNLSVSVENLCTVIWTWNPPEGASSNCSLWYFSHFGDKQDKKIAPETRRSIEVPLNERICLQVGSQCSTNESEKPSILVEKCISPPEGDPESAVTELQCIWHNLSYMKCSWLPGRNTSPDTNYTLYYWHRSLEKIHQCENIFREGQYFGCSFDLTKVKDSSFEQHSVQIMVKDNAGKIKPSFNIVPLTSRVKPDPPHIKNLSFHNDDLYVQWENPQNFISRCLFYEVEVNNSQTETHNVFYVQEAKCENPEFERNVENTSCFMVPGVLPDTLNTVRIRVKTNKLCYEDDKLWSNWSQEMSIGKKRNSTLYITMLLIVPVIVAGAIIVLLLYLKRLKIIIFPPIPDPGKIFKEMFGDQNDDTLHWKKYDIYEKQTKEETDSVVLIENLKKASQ

T2: IL10 receptor (UniProt Q13651 22-578; Q08334 20-325, limits assumed)
T2 sequence (looked up) 1: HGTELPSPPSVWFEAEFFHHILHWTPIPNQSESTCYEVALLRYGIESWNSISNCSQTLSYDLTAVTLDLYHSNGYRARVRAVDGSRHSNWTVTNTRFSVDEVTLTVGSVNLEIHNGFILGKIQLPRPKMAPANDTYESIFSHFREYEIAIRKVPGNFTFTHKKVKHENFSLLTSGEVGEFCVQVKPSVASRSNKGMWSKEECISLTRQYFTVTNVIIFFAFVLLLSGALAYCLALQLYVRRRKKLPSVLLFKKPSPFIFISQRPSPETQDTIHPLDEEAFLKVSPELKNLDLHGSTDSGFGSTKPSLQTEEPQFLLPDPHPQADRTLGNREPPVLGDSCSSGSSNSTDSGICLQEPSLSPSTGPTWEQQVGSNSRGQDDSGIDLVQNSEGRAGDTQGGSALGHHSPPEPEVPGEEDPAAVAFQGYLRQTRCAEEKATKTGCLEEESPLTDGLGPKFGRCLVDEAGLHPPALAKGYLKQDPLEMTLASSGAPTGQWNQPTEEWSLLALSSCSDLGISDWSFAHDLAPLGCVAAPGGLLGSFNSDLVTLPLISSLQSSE
T2 sequence (looked up) 2: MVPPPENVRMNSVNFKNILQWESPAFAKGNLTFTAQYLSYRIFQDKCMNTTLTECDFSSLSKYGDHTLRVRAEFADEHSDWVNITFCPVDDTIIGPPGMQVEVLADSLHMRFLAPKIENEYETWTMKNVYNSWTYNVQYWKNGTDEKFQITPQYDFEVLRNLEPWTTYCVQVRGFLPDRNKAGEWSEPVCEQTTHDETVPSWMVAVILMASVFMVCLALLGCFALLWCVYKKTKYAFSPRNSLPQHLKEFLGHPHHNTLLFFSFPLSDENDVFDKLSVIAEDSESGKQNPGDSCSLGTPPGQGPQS

B1: IL4-13 Fc (mouse) (Fc fusion)
chain 1: HIHGCDKNHLREIIGILNEVTGEGTPCTEMDVPNVLTATKNTTESELVCRASKVLRIFYLKHGKTPCLKKNSSVLMELQRLFRAFRCLDSSISCTMNESKSTSLKDFLESLKSIMQMDYSGSGGGGSGTCKPCICTVPEVSSVFIFPPKPKDVLTITLTPKVTCVVVAISKDDPEVQFSWFVDDVEVHTAQTKPREEQINSTFRSVSELPIMHQDWLNGKEFKCRVNSAAFPAPIEKTISKTKGRPKAPQVYTIPPPKKQMAKDKVSLTCMITNFFPEDITVEWQWNGQPAENYKNTQPIMKTDGSYFVYSKLNVQKSNWEAGNTFTCSVLHEGLHNHHTEKSLSHSPGK
chain 2: APGPVPRSVSLPLTLKELIEELSNITQDQTPLCNGSMVWSVDLAAGGFCVALDSLTNISNCNAIYRTQRILHGLCNRKAPTTVSSLPDTKIEVAHFITKLLSYTKQLFRHGPFTGSGGGGSGTCKPCICTVPEVSSVFIFPPKPKDVLTITLTPKVTCVVVAISKDDPEVQFSWFVDDVEVHTAQTKPREEQINSTFRSVSELPIMHQDWLNGKEFKCRVNSAAFPAPIEKTISKTKGRPKAPQVYTIPPPKEQMAKDKVSLTCMITNFFPEDITVEWQWNGQPAENYKNTQPIMDTDGSYFVYSELNVQKSNWEAGNTFTCSVLHEGLHNHHTEDSLSHSPGK
B2: IL4-13 (mouse) (ligand)
chain: HHHHHHIHGCDKNHLREIIGILNEVTGEGTPCTEMDVPNVLTATKNTTESELVCRASKVLRIFYLKHGKTPCLKKNSSVLMELQRLFRAFRCLDSSISCTMNESKSTSLKDFLESLKSIMQMDYSGSGGGGSGTAPGPVPRSVSLPLTLKELIEELSNITQDQTPLCNGSMVWSVDLAAGGFCVALDSLTNISNCNAIYRTQRILHGLCNRKAPTTVSSLPDTKIEVAHFITKLLSYTKQLFRHGPF
B3: IL4-Fc (Fc fusion)
chain: HKCDITLQEIIKTLNSLTEQKTLCTELTVTDIFAASKNTTEKETFCRAATVLRQFYSHHEKDTRCLGATAQQFHRHKQLIRFLKRLDRNLWGLAGLNSCPVKEANQSTLENFLERLKTIMREKYSKCSSGSGGGGSGTCPPCPAPELLGGPSVFLFPPKPKDTLMISRTPEVTCVVVDVSHEDPEVKFNWYVDGVEVHNAKTKPREEQYNSTYRVVSVLTVLHQDWLNGKEYKCKVSNKALPAPIEKTISKAKGQPREPQVCTLPPSRDELTKNQVSLSCAVKGFYPSDIAVEWESNGQPENNYKTTPPVLDSDGSFFLVSKLTVDKSRWQQGNVFSCSVMHEALHNHYTQKSLSLSPGK
B4: IL4-10M(J) (ligand)
chain: HKCDITLQEIIKTLNSLTEQKTLCTELTVTDIFAASKNTTEKETFCRAATVLRQFYSHHEKDTRCLGATAQQFHRHKQLIRFLKRLDRNLWGLAGLNSCPVKEANQSTLENFLERLKTIMREKYSKCSSGSGGGGSGTSPGQGTQSENSCTHFPGNLPNMLRDLRDAFSRVKTFFQMKDQLDNLLLKESLLEDFKGYLGCQALSEMIQFYLEEVMPQAENQDPDIKAHVNSLGENLKTLRLRLRRCHRFLPCENGGGSGGKSKAVEQVKNAFNKLQEKGIYKAMSEFDIFINYIEAYMTMKIRN
B5: IL4-10M(S) (ligand)
chain: KSKAVEQVKNAFNKLQEKGIYKAMSEFDIFINYIEAYMTMKIRNGSGGGGSGTSPGQGTQSENSCTHFPGNLPNMLRDLRDAFSRVKTFFQMKDQLDNLLLKESLLEDFKGYLGCQALSEMIQFYLEEVMPQAENQDPDIKAHVNSLGENLKTLRLRLRRCHRFLPCENGSGGGGSGTHKCDITLQEIIKTLNSLTEQKTLCTELTVTDIFAASKNTTEKETFCRAATVLRQFYSHHEKDTRCLGATAQQFHRHKQLIRFLKRLDRNLWGLAGLNSCPVKEANQSTLENFLERLKTIMREKYSKCSSHHHHHH
B6: IL4-10M(J) mouse Fc (Fc fusion)
chain 1: HKCDITLQEIIKTLNSLTEQKTLCTELTVTDIFAASKNTTEKETFCRAATVLRQFYSHHEKDTRCLGATAQQFHRHKQLIRFLKRLDRNLWGLAGLNSCPVKEANQSTLENFLERLKTIMREKYSKCSSGSGGGGSGTCKPCICTVPEVSSVFIFPPKPKDVLTITLTPKVTCVVVAISKDDPEVQFSWFVDDVEVHTAQTKPREEQINSTFRSVSELPIMHQDWLNGKEFKCRVNSAAFPAPIEKTISKTKGRPKAPQVYTIPPPKKQMAKDKVSLTCMITNFFPEDITVEWQWNGQPAENYKNTQPIMKTDGSYFVYSKLNVQKSNWEAGNTFTCSVLHEGLHNHHTEKSLSHSPGK
chain 2: SPGQGTQSENSCTHFPGNLPNMLRDLRDAFSRVKTFFQMKDQLDNLLLKESLLEDFKGYLGCQALSEMIQFYLEEVMPQAENQDPDIKAHVNSLGENLKTLRLRLRRCHRFLPCENGGGSGGKSKAVEQVKNAFNKLQEKGIYKAMSEFDIFINYIEAYMTMKIRNTGSGGGGSGTCKPCICTVPEVSSVFIFPPKPKDVLTITLTPKVTCVVVAISKDDPEVQFSWFVDDVEVHTAQTKPREEQINSTFRSVSELPIMHQDWLNGKEFKCRVNSAAFPAPIEKTISKTKGRPKAPQVYTIPPPKEQMAKDKVSLTCMITNFFPEDITVEWQWNGQPAENYKNTQPIMDTDGSYFVYSELNVQKSNWEAGNTFTCSVLHEGLHNHHTEDSLSHSPGK
B7: IL10M(S) (ligand)
chain: KSKAVEQVKNAFNKLQEKGIYKAMSEFDIFINYIEAYMTMKIRNGSGGGGSGTSPGQGTQSENSCTHFPGNLPNMLRDLRDAFSRVKTFFQMKDQLDNLLLKESLLEDFKGYLGCQALSEMIQFYLEEVMPQAENQDPDIKAHVNSLGENLKTLRLRLRRCHRFLPCEN
B8: IL4-10 fusion (wt, dimer) (ligand)
chain: HKCDITLQEIIKTLNSLTEQKTLCTELTVTDIFAASKNTTEKETFCRAATVLRQFYSHHEKDTRCLGATAQQFHRHKQLIRFLKRLDRNLWGLAGLNSCPVKEANQSTLENFLERLKTIMREKYSKCSSGSGGGGSGTSPGQGTQSENSCTHFPGNLPNMLRDLRDAFSRVKTFFQMKDQLDNLLLKESLLEDFKGYLGCQALSEMIQFYLEEVMPQAENQDPDIKAHVNSLGENLKTLRLRLRRCHRFLPCENKSKAVEQVKNAFNKLQEKGIYKAMSEFDIFINYIEAYMTMKIRN
B9: IL10M(J) (ligand)
chain: SPGQGTQSENSCTHFPGNLPNMLRDLRDAFSRVKTFFQMKDQLDNLLLKESLLEDFKGYLGCQALSEMIQFYLEEVMPQAENQDPDIKAHVNSLGENLKTLRLRLRRCHRFLPCENGGGSGGKSKAVEQVKNAFNKLQEKGIYKAMSEFDIFINYIEAYMTMKIRN

What follows are binders tested against mIL4Ra/mIL13Ra2 (mouse, UniProt P16382 26-257; O88786 22-355) (assay: cell-based or functional assay).
Chain of mIL4Ra/mIL13Ra2 (P16382 26-257, chain 1 of 2): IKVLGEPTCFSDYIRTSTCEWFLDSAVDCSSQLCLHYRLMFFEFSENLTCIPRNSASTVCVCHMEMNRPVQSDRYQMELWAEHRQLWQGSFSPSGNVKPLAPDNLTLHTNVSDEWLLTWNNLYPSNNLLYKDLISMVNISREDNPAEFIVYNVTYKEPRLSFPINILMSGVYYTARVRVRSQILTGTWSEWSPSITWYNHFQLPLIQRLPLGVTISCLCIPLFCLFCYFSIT
Chain of mIL4Ra/mIL13Ra2 (O88786 22-355, chain 2 of 2): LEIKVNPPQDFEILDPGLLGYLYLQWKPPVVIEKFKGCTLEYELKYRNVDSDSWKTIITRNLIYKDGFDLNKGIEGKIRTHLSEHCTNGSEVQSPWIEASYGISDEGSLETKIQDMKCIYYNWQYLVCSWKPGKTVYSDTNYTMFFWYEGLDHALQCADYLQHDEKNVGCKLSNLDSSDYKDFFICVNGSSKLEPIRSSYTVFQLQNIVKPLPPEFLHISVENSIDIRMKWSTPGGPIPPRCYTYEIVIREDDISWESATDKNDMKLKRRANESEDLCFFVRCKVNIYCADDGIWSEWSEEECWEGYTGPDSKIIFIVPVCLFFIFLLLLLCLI

Heterologous clustering mIL4Ra/mIL13Ra2 EC50 (NanoBiT enzyme complementation) [pM]	Binder
1100	B1
187	B2

These binders were tested against T1, IL4 (type II) receptor (assay: cell-based or functional assay).

HEK-Blue IL4/13 EC50 (STAT6-induced SEAP expression) [nM]	Binder
0.0201	B3

What follows are binders tested against T2, IL10 receptor (assay: cell-based or functional assay).

HEK-Blue IL10 EC50 (STAT-3 mediated SEAP expression) [nM]	Binder
0.0778	B4
0.117	B5
0.52	B6
0.149	B7
0.0289	B8
0.0634	B9
